The source of these data is article PMC6888877, “Deconstructing and repurposing the light-regulated interplay between Arabidopsis phytochromes and interacting factors” (Communications Biology, 2019).

As usually defined, the stoichiometry N is the number of molecules, sites or subunits per partner or assembly. Usually Kd stands for the concentration at which binding is half-saturated. A higher Kd goes with a looser complex.

The labels stand for the following.
B1: P3.A-EYFP (domain or fragment)
chain: MVDEVVELVWENGQISTQSQSSRSRNIPPPQANSSRAREIGN
B2: P3.AA-EYFP (domain or fragment)
chain: MVDEVVELVWENGQISTQSQSSRSRNIPPPQANSSRAREIGNGSKTTMVDEIPMSVPSLVDEVVELVWENGQISTQSQSSRSRFVPWLNHH
B3: P6.AA-EYFP (domain or fragment)
chain: MDQEYMELVFENGQILAKGQRSNVSLHNQRTKSIMDLYEAEYNEDFMKSIIHGGGGDQEYMELVFENGQILAKGQRSNTNMLESNKHVD
B4: AtPIF3 (1-100)-EYFP, P3.100 (domain or fragment, Arabidopsis thaliana, UniProt O80536 1-100, looked up)
chain: MPLFELFRLTKAKLESAQDRNPSPPVDEVVELVWENGQISTQSQSSRSRNIPPPQANSSRAREIGNGSKTTMVDEIPMSVPSLMTGLSQDDDFVPWLNHH
notes: A. thaliana PIF3, residues 1-100; His6-SUMO only on the pET-19b construct that was purified; the pET-28c construct used in lysate has the same AtPIF part, linker and EYFP; also called P3.100-EYFP; source: E. coli BL21(DE3): in crude lysate (pET-28c), and purified (pET-19b; IMAC, SENP2 cleavage, second IMAC, optional anion exchange); not shown: His6-SUMO, N-terminal, cleaved
B5: P6.AAfus-EYFP (domain or fragment)
chain: MDQEYMELVFENGQILAKGQRSNDQEYMELVFENGQILAKGQRSNTNMLESNKHVD
B6: P3 (AtPIF3 1-100 without the N-terminal region preceding APB.A)-EYFP (domain or fragment)
chain: MVDEVVELVWENGQISTQSQSSRSRNIPPPQANSSRAREIGNGSKTTMVDEIPMSVPSLMTGLSQDDDFVPWLNHH
B7: P6.fus-EYFP (domain or fragment)
chain: MDQEYMELVFENGQILAKGQRSNAITNLGDTQVVPQSHVAAAHETNMLESNKHVD
B8: P3.AAfus-EYFP (domain or fragment)
chain: MVDEVVELVWENGQISTQSQSSRSRVDEVVELVWENGQISTQSQSSRSRFVPWLNHH
B9: AtPIF6 (1-100)-EYFP, P6.100 (domain or fragment, Arabidopsis thaliana, UniProt Q8L5W7 1-100, looked up)
chain: MMFLPTDYCCRLSDQEYMELVFENGQILAKGQRSNVSLHNQRTKSIMDLYEAEYNEDFMKSIIHGGGGAITNLGDTQVVPQSHVAAAHETNMLESNKHVD
notes: A. thaliana PIF6, residues 1-100; His6-SUMO only on the pET-19b construct that was purified; the pET-28c construct used in lysate has the same AtPIF part, linker and EYFP; also called P6.100-EYFP; source: E. coli BL21(DE3): in crude lysate (pET-28c), and purified (pET-19b; IMAC, SENP2 cleavage, second IMAC, optional anion exchange); not shown: His6-SUMO, N-terminal, cleaved
B10: P6 (AtPIF6 1-100 without the N-terminal region preceding APB.A)-EYFP (domain or fragment)
chain: MDQEYMELVFENGQILAKGQRSNVSLHNQRTKSIMDLYEAEYNEDFMKSIIHGGGGAITNLGDTQVVPQSHVAAAHETNMLESNKHVD

One data set concerns the target B1. The data set can be described thus: SEC; AtPIF-EYFP variants or EYFP alone, 10 µM, not illuminated; Superdex 200 Increase 10/300 GL; 67 mM sodium phosphate pH 8.0, 200 mM NaCl.
Conditions: not given
A general note: In gel filtration, larger molecules generally elute earlier.
With B1, the stoichiometry N was 2.

Another data set concerns the target T1, Arabidopsis thaliana phytochrome B photosensory core module (AtPhyB PCM) (Arabidopsis thaliana, UniProt P14713 1-651, covalently incorporated bilin chromophore (PCB; co-expressed Synechocystis sp. heme oxygenase 1 and pcyA)).
T1 construct: A. thaliana phytochrome B, photosensory core module (PAS-GAF-PHY with N-terminal extension), residues 1-651; Pr state (far-red light or dark) and Pfr state (red light; Pfr/Pr about 0.56/0.44) are told apart by the assays; In the cell experiments other constructs were used (PCM-VP16; PCM 1-650 with CAAX); source: E. coli BL21(DE3), plasmid pDG282, purified (Ni-NTA IMAC, anion exchange)
T1 sequence (looked up): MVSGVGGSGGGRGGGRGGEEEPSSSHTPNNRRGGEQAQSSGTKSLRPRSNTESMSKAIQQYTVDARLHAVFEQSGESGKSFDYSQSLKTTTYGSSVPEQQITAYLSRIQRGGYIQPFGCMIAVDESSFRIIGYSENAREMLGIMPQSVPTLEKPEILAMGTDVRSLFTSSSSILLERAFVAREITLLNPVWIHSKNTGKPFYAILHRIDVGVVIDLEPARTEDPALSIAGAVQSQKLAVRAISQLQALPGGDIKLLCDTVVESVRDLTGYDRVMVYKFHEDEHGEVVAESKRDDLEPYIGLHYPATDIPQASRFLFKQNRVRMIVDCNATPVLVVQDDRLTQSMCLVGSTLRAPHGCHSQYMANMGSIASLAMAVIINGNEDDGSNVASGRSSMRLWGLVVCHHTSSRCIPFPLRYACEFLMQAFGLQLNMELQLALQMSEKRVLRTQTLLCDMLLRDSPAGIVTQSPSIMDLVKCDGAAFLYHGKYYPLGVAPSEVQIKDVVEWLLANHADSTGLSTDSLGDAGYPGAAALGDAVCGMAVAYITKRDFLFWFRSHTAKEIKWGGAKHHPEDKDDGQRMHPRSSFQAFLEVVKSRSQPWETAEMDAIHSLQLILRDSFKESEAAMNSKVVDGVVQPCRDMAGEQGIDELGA
Briefly: fluorescence polarisation; anisotropy of EYFP; 20 nM AtPIF-EYFP constant, AtPhyB PCM 0-10 µM titrated, far-red light (750 nm), Pr state; 20 mM HEPES/HCl pH 7.3, 10 mM NaCl, 100 µg/mL BSA; single-site isotherm. Particulars: both partners purified. For orientation: In fluorescence polarisation assays a small probe gives low polarisation when free and higher when bound to something large.
B2: the Kd was > 3000 nM.
Regarding MVDEVVELVWENGQISTQSQSSRSR (domain or fragment) [P3.As-EYFP], the Kd is > 10000 nM.
On the same count and under the same terms, as for B1, the figure is > 10000 nM; as for MVDEVVELVWENGQISTQSQSSRSRMTGLSQDDDFVPWLNHH (domain or fragment) [P3.fus-EYFP], > 10000 nM; as for B3, > 2000 nM.
Same read-out and setting: the figure for MDQEYMELVFENGQILAKGQRSN (domain or fragment) [P6.As-EYFP] is > 10000 nM; for B4 it is > 2000 nM.
Same read-out and setting: as for B5, the figure is > 10000 nM; as for B6, > 10000 nM.
As to B7, the equilibrium dissociation constant (Kd) is > 10000 nM.
For B8, the Kd is > 10000 nM.
The same measure, in the same setting: as for MDQEYMELVFENGQILAKGQRSNVSLHNQRTKSIMDLYEA (domain or fragment) [P6.A-EYFP], the figure is > 2000 nM.

In another data set the target is T1, Arabidopsis thaliana phytochrome B …. The data set can be described thus: fluorescence polarisation; anisotropy of EYFP; 20 nM AtPIF-EYFP constant, AtPhyB PCM 0-10 µM titrated, red light (640 nm), Pfr state; KD corrected for the Pfr fraction (about 0.56); 20 mM HEPES/HCl pH 7.3, 10 mM NaCl, 100 µg/mL BSA; single-site isotherm. To be noted: both partners purified.
As for MVDEVVELVWENGQISTQSQ (domain or fragment) [P3.A19-EYFP], the Kd was > 1000 nM.
With MDQEYMELVFENGQILAKGQ (domain or fragment) [P6.A19-EYFP], the Kd was > 2000 nM.
Consider B9, for which the Kd was 10 ± 8 nM.
On the same count and under the same terms, the figure for B2 is 370 ± 40 nM; for MVDEVVELVWENGQISTQSQSSRSR (domain or fragment) [P3.As-EYFP] it is 680 ± 60 nM.
On the same count and under the same terms, as for B1, the figure is 220 ± 40 nM.
Turning to MVDEVVELVWENGQISTQSQSSRSRMTGLSQDDDFVPWLNHH (domain or fragment) [P3.fus-EYFP], binding was characterised by a dissociation constant (Kd) of 270 ± 60 nM.
With B3, the Kd was 360 ± 40 nM.
Same read-out and setting: as for MDQEYMELVFENGQILAKGQRSN (domain or fragment) [P6.As-EYFP], the figure is 710 ± 80 nM.
In turn, B4 registered a dissociation constant Kd of 200 ± 70 nM.
With B10, the Kd was 10 ± 7 nM.
Still for that read-out and setting: as for B5, the figure is 230 ± 30 nM.
B6 showed a dissociation constant (Kd) of 220 ± 40 nM.
On the same count and under the same terms, the figure for B7 is 200 ± 90 nM.
Same read-out and setting: as for B8, the figure is 230 ± 50 nM; as for MDQEYMELVFENGQILAKGQRSNVSLHNQRTKSIMDLYEA (domain or fragment) [P6.A-EYFP], 280 ± 100 nM.

A further data set concerns the molecule itself. Briefly: SEC; AtPIF-EYFP variants or EYFP alone, 10 µM, not illuminated; Superdex 200 Increase 10/300 GL; 67 mM sodium phosphate pH 8.0, 200 mM NaCl.
Conditions: not given
As to B9, the “stoichiometry N” value amounted to 2.
Same read-out and setting: the figure for B2 is 2; for B3 it is 2.
Turning to B4, the “stoichiometry N” value was found to be 2.
Regarding B6, the “stoichiometry N” value is 2.
Same read-out and setting: the figure for B7 is 2.
